From patent US20180258175A1 (ABLEXIS, published 2018)
Residue numbers refer to the chain shown, from its start.

B1: CCK-519A (antibody, V domains shown)
VH: not shown
VL: DIVMTQTPLSLPVTPGEPASISCRSSQSLLDSDDGNTYLDWYLQKPGQSPQLLIYTLSYRASGVPDRFSGSGSGTDFTLKISRVEAEDVGVYYCMQRIEFPITFGQGTRLEIK
notes: AlivaMab chimeric IgG, human kappa LC
B2: CCK-418A (antibody, V domains shown)
VH: QVQLQESGPGLVKPSETLSLTCTVSGGSISSYYWSWIRQPAGKGLEWIGRIYTSGTTNFNPSLKSRVTMSVDTSKNQFSLKLSSVTAADTAVYYCATLSGTNWGSPFDYWGQGTLVTVSS
VL: not shown
notes: as for B1
B3: CCK-456A (antibody, V domains shown)
VH: EVHLVESGGGLVKPGGSLRLSCAASGFTFSSYSMNWFRQAPGKGLEWVSSISSSSSYIYYADSVKGRFTISRDNAKNSLSLQMNSLRAEDTAVYYCARAGAVAALYNWFDPWGQGTLVTVSS
VL: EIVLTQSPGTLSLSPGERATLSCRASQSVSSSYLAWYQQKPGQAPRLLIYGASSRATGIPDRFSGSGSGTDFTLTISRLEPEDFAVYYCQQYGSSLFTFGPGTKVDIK
notes: as for B1
B4: CCK-467A (antibody, V domains shown)
VH: EVQLVESGGGLVKPGGSLRLSCAASGFTFSSYSMNWVRQAPGKGLEWVSSISSSSSYIYYADSVKGRFTISRDNAKNSLFLQMNSLRAEDTAVYYCARGGSFPYNWFDPWGQGTLVTVSS
VL: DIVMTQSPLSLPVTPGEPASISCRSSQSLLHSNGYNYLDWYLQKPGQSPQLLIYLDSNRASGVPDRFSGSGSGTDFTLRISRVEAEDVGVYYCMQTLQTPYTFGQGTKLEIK
notes: as for B1
B5: 487 (Table 4, bin 3 block) (antibody, V domains shown)
VH: QVQLQESGPGLVKPSETLSLTCTVSGGSISSYYWSWIRQPAGKGLEWIGHIFSSGSTNYNPSLKSRVTMSVDTSKSQFSLKLSSVTAADTAVYLCARGGVTWFDPWGQGTLVTVSS
VL: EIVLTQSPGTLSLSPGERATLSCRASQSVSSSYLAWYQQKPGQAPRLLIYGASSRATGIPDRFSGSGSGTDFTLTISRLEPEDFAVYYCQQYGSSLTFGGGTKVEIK
notes: not tied
B6: CCK-533A (antibody, V domains shown)
VH: QVQLVQSGAEVKKPGASVKVSCKASGYTFTGYYMHWVRQAPGQGLEWMGRINPNSGGTYYAQKFQGRVTMTRDTSISTAYVELSRLRSDDTAVYYCARKNPWGHFDYWGQGTLVTVSS
VL: B1 VL with I102Y, R109K
notes: as for B1
B7: CCK-407A (antibody, V domains shown)
VH: B5 VH
VL: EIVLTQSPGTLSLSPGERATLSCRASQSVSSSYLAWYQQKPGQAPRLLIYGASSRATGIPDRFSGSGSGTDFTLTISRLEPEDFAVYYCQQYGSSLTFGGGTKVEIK
notes: as for B1
B8: CCK-539A (antibody, V domains shown)
VH: QVQLVESGGGVVQPGRSLRLSCAASGFTFSTFAMHWVRQAPGKGLEWVAVISYDGSNKYYVDSVKGRFTISRDNSKNTLYLQMNSLRAEDTAMYYCARDGTGDALDIWGQGTMVTVSS
VL: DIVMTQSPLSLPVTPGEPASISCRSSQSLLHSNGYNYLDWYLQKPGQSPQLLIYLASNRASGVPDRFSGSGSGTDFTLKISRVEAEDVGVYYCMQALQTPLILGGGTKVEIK
notes: as for B1

These binders were tested against T1, human CD115 extracellular domain (Sino Biological 10161-H08H) (human, UniProt P07333 20-517) (assay: competition ELISA, competitor TMR 44B;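 further: binding of antibodies from single-clone hybridoma supernatants to huCD115 measured with the competitor antibody present, a drop in signal meaning both share an epitope bin; low signal means same epitope bin as the mouse competitor antibody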).
T1 construct: extracellular domain; bought recombinant protein; also called huCD115; hu-CD115

First: B1
Second: B2
The “signal vs NO COMP=100” value of the first is higher: 12% for the first, 3% for the second.

Going from B3 to B4, the “signal vs NO COMP=100” value falls from 27% to 22%.

For B5, the “signal vs NO COMP=100” value was 94%.

These binders were tested against T1, human CD115 extracellular domain (Sino …) (assay: competition ELISA, competitor TMR 95A;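 further: clonal anti-huCD115 hybridoma supernatants tested for binding while a competitor mouse antibody is present, where failure to bind assigns them to that competitor's epitope bin; low signal means same epitope bin as the mouse competitor antibody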).

Going from B1 to B2, the “signal vs NO COMP=100” value falls from 36% to 10%.

Going from B3 to B4, the “signal vs NO COMP=100” value rises from 27% to 46%.

B5 was tested, and the “signal vs NO COMP=100” value was 84%.

These binders were tested against T1, human CD115 extracellular domain (Sino …) (assay: SPR ProteOn, supernatant mAb captured on anti-mouse IgG, Hu CD115 analyte).

First: B1
Second: B2
The Kd of the first is 5.4-fold higher: 0.86 nM for the first, 0.158 nM for the second. The second binds more tightly here.

Going from B6 to B3, the Kd rises from 0.317 nM to 1.97 nM (6.2-fold). The first binds more tightly here.

B4 and B7 are within 1.5-fold of each other in Kd: 0.65 nM for the first, 0.95 nM for the second.

With B8 the Kd was 2.7 nM.

First: B1
Second: B2
The koff of the first is 3.7-fold higher: 7.71e-05 s⁻¹ for the first, 2.11e-05 s⁻¹ for the second.

B6 and B3 are within 1.5-fold of each other in koff: 3.92e-05 s⁻¹ for the first, 5.3e-05 s⁻¹ for the second.

First: B4
Second: B7
The koff of the first is 4.4-fold lower: 1.48e-05 s⁻¹ for the first, 6.54e-05 s⁻¹ for the second.

B8 showed a koff of 8.5e-05 s⁻¹.

B1 and B2 are within 1.5-fold of each other in kon: 90000 M⁻¹ s⁻¹ for the first, 133000 M⁻¹ s⁻¹ for the second.

Compared with B6, B3 is 4.6-fold lower in kon: 124000 M⁻¹ s⁻¹ for the first, 27000 M⁻¹ s⁻¹ for the second.

Compared with B4, B7 is 3-fold higher in kon: 23000 M⁻¹ s⁻¹ for the first, 69000 M⁻¹ s⁻¹ for the second.

B8 was tested, and the kon was 32000 M⁻¹ s⁻¹.

The binders below were run against T1, human CD115 extracellular domain (Sino …) (assay: competition ELISA, competitor TMR 20A;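 further: epitope binning by ELISA, anti-huCD115 hybridoma supernatant antibodies tested for binding to huCD115 with the competitor antibody present, loss of binding placing them in the competitor's bin; low signal means same epitope bin as the mouse competitor antibody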).

Going from B1 to B2, the “signal vs NO COMP=100” value rises from 6% to 89%.

Compared with B3, B4 is higher in “signal vs NO COMP=100” value: 73% for the first, 96% for the second.

For B5, the “signal vs NO COMP=100” value was 97%.

These binders were tested against T1, human CD115 extracellular domain (Sino …) (assay: competition ELISA, competitor TMR 24A;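 further: clonal anti-huCD115 hybridoma supernatant antibodies bound with a competitor mouse antibody present, and failure to bind puts a clone in that competitor's epitope bin; low signal means same epitope bin as the mouse competitor antibody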).

First: B1
Second: B2
The “signal vs NO COMP=100” value of the first is higher: 110% for the first, 35% for the second.

Going from B3 to B4, the “signal vs NO COMP=100” value rises from 42% to 58%.

With B5 the “signal vs NO COMP=100” value was 86%.

What follows are binders tested against T1, human CD115 extracellular domain (Sino …) (assay: competition ELISA, competitor TMR 35A).

First: B1
Second: B2
The “signal vs NO COMP=100” value of the first is higher: 110% for the first, 82% for the second.

First: B3
Second: B4
The “signal vs NO COMP=100” value of the first is lower: 64% for the first, 83% for the second.

B5 was tested, and the “signal vs NO COMP=100” value was 6%.

These binders were tested against T1, human CD115 extracellular domain (Sino …) (assay: competition ELISA, competitor TMR 100A).

Going from B1 to B2, the “signal vs NO COMP=100” value falls from 118% to 106%.

Compared with B3, B4 is higher in “signal vs NO COMP=100” value: 96% for the first, 102% for the second.

With B5 the “signal vs NO COMP=100” value was 103%.
